Assay results: the supplement of paper PMC7877785
± gives the uncertainty stated by the source.

Experiment: self-splicing fitness, log relative to wild type (ln ratio); higher = more splicing; Tetrahymena group I intron in knt gene, E. coli kanamycin selection, DiMSum; sequences stand for … in CUCUCU…GGAGGGAAAAGUUAUCAGGCAUGCACCUGGUAGCUAGUCUUUAAACCAAUAGAUUGCAUCGGUUUAAAAGGCAAGACCGUCAAAUUGCGGGAAAGGGGUCAACAGCCGUUCAGUACCAAGUCUCAGGGGAAACUUUGAGAUGGCCUUGCAAAGGGUAUGGUAAUAAGCUGACGGACAUGGUCCUAACCACGCAGCCAAGUCCUAAGUCAACAGAUCUUCUGUUGAUAUGGAUGCAGUUCACAGACUAAAUGUCGGUCGGGGAAGAUGUAUUCUUCUCAUAAGAUAUAGUCGGACCUCUCCUUAAUGGGAGCUAGCGGAUGAAGUGAUGCAACACUGGAGCCGCUGGGAACUAAUUUGUAUGCGAAAGUAUAUUGAUUAGUUUUGGAGUACUCGUGGUCG
In short: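 Pooled colonies went to amplicon sequencing on an Illumina HiSeq 2500 after six replicate transformations. The plates were LB agar with 100 μg/mL carbenicillin, 50 μM IPTG and 0.2% rhamnose, with or without 25 μg/mL kanamycin, incubated overnight at 37°C or 30°C. The E. coli BL21(DE3) library had all eight P1ex-region intron nucleotides randomised, the intron placed in the knt kanamycin-resistance gene on pET-22b(+). DiMSum fitness is the error-weighted combination of replicate fold changes, kanamycin against none, normalised to wild type.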

Sequence | self-splicing fitness (ln) (30 °C) | self-splicing fitness (ln) (37 °C)
GCUAAGCAAUAUUACGACCA | -2.09 ± 0.21 | -1.34 ± 0.26
GCUAAGCAAUAUUACGAGAA | -0.77 ± 0.47 | -1.64 ± 0.31
GCUAAGCAAUAUUACGAGAC | -2.13 ± 0.13 | -0.763 ± 0.14
GCUAAGCAAUAUUACGAUUA | -1.63 ± 0.22 | -0.39 ± 0.18
GCUAAGCAAUAUUACGCACC | -0.869 ± 0.11 | 0.0219 ± 0.14
GCUAAGCAAUAUUACGCAGG | -2.8 ± 0.26 | -3.55 ± 0.39
GCUAAGCAAUAUUACGCAGU | -3.5 ± 0.24 | -2.88 ± 0.31
GCUAAGCAAUAUUACGCAUG | -2.51 ± 0.16 | -2.09 ± 0.15
GCUAAGCAAUAUUACGCCAU | -2.71 ± 0.2 | -3.21 ± 0.27
GCUAAGCAAUAUUACGCCCC | -1.74 ± 0.28 | -0.52 ± 0.21
GCUAAGCAAUAUUACGCCGU | -3.45 ± 0.3 | -0.927 ± 0.31
GCUAAGCAAUAUUACGCGAA | -2.87 ± 0.13 | -1.1 ± 0.14
GCUAAGCAAUAUUACGCGAC | -2.11 ± 0.14 | -1.54 ± 0.17
GCUAAGCAAUAUUACGCGUA | -1.26 ± 0.12 | -0.718 ± 0.14
GCUAAGCAAUAUUACGGAAA | -1.48 ± 0.2 | -2.28 ± 0.24
GCUAAGCAAUAUUACGGAAG | -1.5 ± 0.071 | -0.648 ± 0.088
GCUAAGCAAUAUUACGGACA | -1.35 ± 0.12 | -1.17 ± 0.12
GCUAAGCAAUAUUACGGCCU | -1.89 ± 0.095 | -0.893 ± 0.11
GCUAAGCAAUAUUACGGUAA | -1.65 ± 0.17 | -1.04 ± 0.16
GCUAAGCAAUAUUACGUAUA | -1.76 ± 0.12 | -0.55 ± 0.13
GCUAAGCAAUAUUACGUCAA | -1.5 ± 0.26 | -1.76 ± 0.32
GCUAAGCAAUAUUACGUCUA | -0.793 ± 0.095 | -0.911 ± 0.12
GCUAAGCAAUAUUACGUGAC | -2.24 ± 0.2 | -0.851 ± 0.21
GCUAAGCAAUAUUACGUGGG | -2.99 ± 0.14 | -1.61 ± 0.13
GCUCAGCAAUAUUACGAACG | -0.679 ± 0.15 | -0.216 ± 0.17

Sequence | self-splicing fitness (ln) (30 °C) | self-splicing fitness (ln) (37 °C)
GCUCAGCAAUAUUACGAAUC | -0.406 ± 0.081 | -0.385 ± 0.082
GCUCAGCAAUAUUACGACAC | -0.687 ± 0.098 | 0.564 ± 0.15
GCUCAGCAAUAUUACGACCG | -1.52 ± 0.17 | -0.109 ± 0.17
GCUCAGCAAUAUUACGAGAU | -1.4 ± 0.077 | -0.431 ± 0.078
GCUCAGCAAUAUUACGAGGC | -4.34 ± 0.42 | -1.42 ± 0.19
GCUCAGCAAUAUUACGAUAG | -1.95 ± 0.11 | -1.26 ± 0.096
GCUCAGCAAUAUUACGAUCC | -0.823 ± 0.076 | -0.215 ± 0.1
GCUCAGCAAUAUUACGAUUU | -0.259 ± 0.056 | 0.00309 ± 0.075
GCUCAGCAAUAUUACGCAAA | -1.15 ± 0.18 | -0.688 ± 0.14
GCUCAGCAAUAUUACGCCCA | -1.99 ± 0.25 | -1.09 ± 0.23
GCUCAGCAAUAUUACGCGUA | -0.217 ± 0.067 | -0.265 ± 0.079
GCUCAGCAAUAUUACGCGUU | -0.447 ± 0.066 | 0.599 ± 0.084
GCUCAGCAAUAUUACGCUGU | -1.22 ± 0.073 | -0.159 ± 0.081
GCUCAGCAAUAUUACGCUUA | -1.4 ± 0.054 | -0.165 ± 0.06
GCUCAGCAAUAUUACGGAAC | -0.677 ± 0.073 | 0.0247 ± 0.11
GCUCAGCAAUAUUACGGAGU | -4.36 ± 0.29 | -3.35 ± 0.32
GCUCAGCAAUAUUACGGCCA | -1.77 ± 0.15 | -0.805 ± 0.16
GCUCAGCAAUAUUACGGGGG | -3.18 ± 0.17 | -1.92 ± 0.16
GCUCAGCAAUAUUACGGGUG | -0.435 ± 0.055 | -0.211 ± 0.074
GCUCAGCAAUAUUACGGUAU | -1.14 ± 0.061 | 0.0133 ± 0.075
GCUCAGCAAUAUUACGUAGA | -0.134 ± 0.073 | -0.191 ± 0.084
GCUCAGCAAUAUUACGUCGU | -0.158 ± 0.057 | 0.486 ± 0.082
GCUCAGCAAUAUUACGUCUC | -0.67 ± 0.12 | -0.754 ± 0.1
GCUCAGCAAUAUUACGUUGC | -1.99 ± 0.17 | -1.27 ± 0.16
GCUCAGCAAUAUUACGUUGG | -1.96 ± 0.17 | -2.46 ± 0.19

Sequence | self-splicing fitness (ln) (30 °C) | self-splicing fitness (ln) (37 °C)
GCUCAGCAAUAUUACGUUGU | -0.847 ± 0.042 | -0.0979 ± 0.057
GCUCAGCAAUAUUACGUUUA | -1.44 ± 0.09 | -0.861 ± 0.083
GCUGAGCAAUAUUACGAAAC | -2.42 ± 0.17 | 0.274 ± 0.14
GCUGAGCAAUAUUACGACCA | -3.18 ± 0.41 | -1.57 ± 0.39
GCUGAGCAAUAUUACGACGG | -1.27 ± 0.17 | -0.245 ± 0.27
GCUGAGCAAUAUUACGACUG | -2.16 ± 0.35 | -0.83 ± 0.38
GCUGAGCAAUAUUACGAGAG | -2.49 ± 0.23 | -2.41 ± 0.22
GCUGAGCAAUAUUACGAGGG | -2.71 ± 0.16 | -2.45 ± 0.31
GCUGAGCAAUAUUACGAGUG | -0.948 ± 0.14 | -1.2 ± 0.17
GCUGAGCAAUAUUACGCAGA | -2.47 ± 0.29 | -1.6 ± 0.32
GCUGAGCAAUAUUACGCGGA | -4.07 ± 0.35 | -2.82 ± 0.23
GCUGAGCAAUAUUACGCGUC | -1.94 ± 0.17 | -0.941 ± 0.21
GCUGAGCAAUAUUACGGCAA | -1.52 ± 0.21 | -2.9 ± 0.31
GCUGAGCAAUAUUACGGGUA | -1.3 ± 0.091 | -1.15 ± 0.1
GCUGAGCAAUAUUACGUACG | -2.59 ± 0.27 | -1.16 ± 0.29
GCUGAGCAAUAUUACGUAGG | -1.82 ± 0.084 | -1.24 ± 0.12
GCUGAGCAAUAUUACGUAUG | -3.21 ± 0.16 | -2.61 ± 0.33
GCUGAGCAAUAUUACGUCUA | -2.85 ± 0.22 | -1.06 ± 0.14
GCUGAGCAAUAUUACGUGAG | -1.73 ± 0.11 | -1.28 ± 0.095
GCUGAGCAAUAUUACGUUAC | – | -2.37 ± 0.32
GCUUAGCAAUAUUACGACAC | -0.819 ± 0.21 | -0.721 ± 0.16
GCUUAGCAAUAUUACGACAG | -2.97 ± 0.3 | -1.93 ± 0.47
GCUUAGCAAUAUUACGACAU | -1.26 ± 0.014 | -0.365 ± 0.033
GCUUAGCAAUAUUACGAGUU | -1.62 ± 0.091 | -0.362 ± 0.11
GCUUAGCAAUAUUACGAUCG | -1.19 ± 0.1 | -0.254 ± 0.12

Sequence | self-splicing fitness (ln) (30 °C) | self-splicing fitness (ln) (37 °C)
GCUUAGCAAUAUUACGAUGG | -1.54 ± 0.1 | -0.452 ± 0.097
GCUUAGCAAUAUUACGCCAA | -4.1 ± 0.43 | –
GCUUAGCAAUAUUACGCCAU | – | -2.2 ± 0.39
GCUUAGCAAUAUUACGCCGC | -3.07 ± 0.5 | –
GCUUAGCAAUAUUACGCGAC | -3.07 ± 0.29 | -1.73 ± 0.2
GCUUAGCAAUAUUACGCGAG | -2.04 ± 0.22 | -2.56 ± 0.33
GCUUAGCAAUAUUACGCGGU | -3.52 ± 0.2 | -3.42 ± 0.28
GCUUAGCAAUAUUACGGCCA | – | -0.846 ± 0.27
GCUUAGCAAUAUUACGGCCC | 0.0255 ± 0.31 | –
GCUUAGCAAUAUUACGGGUC | -3.24 ± 0.23 | -2.31 ± 0.28
GCUUAGCAAUAUUACGGUCG | -1.78 ± 0.12 | -1.41 ± 0.16
GCUUAGCAAUAUUACGGUGG | -2.24 ± 0.19 | -2.38 ± 0.28
GCUUAGCAAUAUUACGGUUU | -1.4 ± 0.068 | -0.908 ± 0.074
GCUUAGCAAUAUUACGUAAG | -2.18 ± 0.12 | -0.181 ± 0.17
GCUUAGCAAUAUUACGUCUC | -0.196 ± 0.096 | 0.386 ± 0.1
GCUUAGCAAUAUUACGUGCC | -3.64 ± 0.35 | -0.354 ± 0.14
GGAAAGCAAUAUUACGACUG | -1.93 ± 0.15 | -0.134 ± 0.19
GGAAAGCAAUAUUACGAUAG | -3.1 ± 0.34 | -1.16 ± 0.2
GGAAAGCAAUAUUACGCAAA | -2.42 ± 0.28 | -1.05 ± 0.25
GGAAAGCAAUAUUACGCAGG | -2.91 ± 0.15 | -2.71 ± 0.22
GGAAAGCAAUAUUACGCCAG | – | -0.912 ± 0.35
GGAAAGCAAUAUUACGCCCG | -0.767 ± 0.21 | -0.0766 ± 0.23
